Measured values as given in patent US20180030118A1.

Assays:
Assay in all cases: ELISA, GP coated 200 ng/well, mAb at 2 ug/mL; negative control
[1] = target: MARV Ravn GPe (Marburg virus, strain Ravn) (UniProt Q1PDC7)
[2] = target: MARV Angola GPe (Marburg virus, strain Angola) (UniProt Q1PD50)
[3] = target: MARV Musoke GPe (Marburg virus, strain Musoke) (UniProt P35253)
Sequence of MARV Musoke GPe (Marburg virus, strain Musoke) (P35253 19-648): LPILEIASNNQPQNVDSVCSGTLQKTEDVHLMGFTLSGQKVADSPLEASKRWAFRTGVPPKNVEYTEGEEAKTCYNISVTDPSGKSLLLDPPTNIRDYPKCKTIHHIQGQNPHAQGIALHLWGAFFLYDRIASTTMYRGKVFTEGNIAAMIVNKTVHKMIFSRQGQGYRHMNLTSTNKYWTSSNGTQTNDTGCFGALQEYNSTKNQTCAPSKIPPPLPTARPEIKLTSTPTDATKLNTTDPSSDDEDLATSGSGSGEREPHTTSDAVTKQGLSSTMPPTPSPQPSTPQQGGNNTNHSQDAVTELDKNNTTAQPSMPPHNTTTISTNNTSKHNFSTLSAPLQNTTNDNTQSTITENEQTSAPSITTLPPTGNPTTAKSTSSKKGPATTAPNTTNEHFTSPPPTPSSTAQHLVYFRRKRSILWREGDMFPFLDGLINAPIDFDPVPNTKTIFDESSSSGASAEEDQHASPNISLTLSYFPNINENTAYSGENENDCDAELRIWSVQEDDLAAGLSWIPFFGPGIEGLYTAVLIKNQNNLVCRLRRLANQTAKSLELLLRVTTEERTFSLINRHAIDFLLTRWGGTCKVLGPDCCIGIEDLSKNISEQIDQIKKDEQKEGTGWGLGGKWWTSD

Sequence of MARV Ravn GPe (Marburg virus, strain Ravn) (Q1PDC7 19-648): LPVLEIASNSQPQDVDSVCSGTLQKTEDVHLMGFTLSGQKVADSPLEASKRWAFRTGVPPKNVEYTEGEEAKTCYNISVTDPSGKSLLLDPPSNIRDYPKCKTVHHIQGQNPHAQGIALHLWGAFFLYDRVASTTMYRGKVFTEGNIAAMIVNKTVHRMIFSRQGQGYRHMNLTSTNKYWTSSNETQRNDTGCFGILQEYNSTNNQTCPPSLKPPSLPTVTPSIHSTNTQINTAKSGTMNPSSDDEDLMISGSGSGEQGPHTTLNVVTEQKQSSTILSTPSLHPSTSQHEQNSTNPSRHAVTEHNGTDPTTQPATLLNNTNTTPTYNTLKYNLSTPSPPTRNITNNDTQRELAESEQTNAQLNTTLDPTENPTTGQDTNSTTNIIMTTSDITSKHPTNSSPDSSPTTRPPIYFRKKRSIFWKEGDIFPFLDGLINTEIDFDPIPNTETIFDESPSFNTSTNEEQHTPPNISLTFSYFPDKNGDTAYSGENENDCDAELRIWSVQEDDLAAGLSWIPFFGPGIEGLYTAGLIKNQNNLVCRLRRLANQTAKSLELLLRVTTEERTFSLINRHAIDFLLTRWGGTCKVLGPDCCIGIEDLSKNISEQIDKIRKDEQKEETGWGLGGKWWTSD
Sequence of MARV Angola GPe (Marburg virus, strain Angola) (Q1PD50 19-648): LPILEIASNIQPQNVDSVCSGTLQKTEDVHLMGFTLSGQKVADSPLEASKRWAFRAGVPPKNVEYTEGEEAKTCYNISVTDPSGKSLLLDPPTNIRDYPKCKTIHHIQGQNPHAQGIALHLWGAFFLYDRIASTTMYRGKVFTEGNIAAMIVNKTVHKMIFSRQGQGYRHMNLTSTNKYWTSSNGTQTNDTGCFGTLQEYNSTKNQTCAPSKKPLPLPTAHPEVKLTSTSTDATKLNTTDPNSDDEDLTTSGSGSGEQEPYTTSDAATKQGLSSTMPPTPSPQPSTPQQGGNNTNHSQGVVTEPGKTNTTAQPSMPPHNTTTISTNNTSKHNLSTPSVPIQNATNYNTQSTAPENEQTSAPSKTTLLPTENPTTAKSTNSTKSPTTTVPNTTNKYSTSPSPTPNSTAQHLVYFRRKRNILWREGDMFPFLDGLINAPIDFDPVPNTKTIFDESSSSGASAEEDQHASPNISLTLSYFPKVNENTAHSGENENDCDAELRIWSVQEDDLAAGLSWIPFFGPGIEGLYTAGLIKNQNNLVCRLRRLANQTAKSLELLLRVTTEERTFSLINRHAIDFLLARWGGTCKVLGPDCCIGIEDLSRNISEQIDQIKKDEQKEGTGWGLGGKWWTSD

Substance | OD405 @ 30 min [1] [OD405] | OD405 @ 30 min [2] [OD405] | OD405 @ 30 min [3] [OD405]
IgG Neg Control (human) (antibody) | 0.052 | 0.054 | 0.056
IgG Neg Control (murine) (antibody) | 0.049 | 0.047 | 0.049
